Laboratory results from article PMC7643160, “An ambruticin-sensing complex modulates Myxococcus xanthus development and mediates myxobacterial interspecies communication” (Nature Communications, 2020).
Each block holds one molecule with its values, some of them ahead of it.

How the values were obtained:
[1] = target: AskA (ambruticin sensor kinase A, MXAN_0712), hybrid histidine kinase (Myxococcus xanthus); assay: MST + SPR; average of the KD values from MST and from SPR (mean KD of Table 1)
[2] = target: AskB (ambruticin sensor kinase B, MXAN_6735), hybrid histidine kinase (Myxococcus xanthus); assay: as above
Chain of AskB (ambruticin sensor kinase B, MXAN_6735), hybrid histidine kinase (Myxococcus xanthus) (main, as listed by the source): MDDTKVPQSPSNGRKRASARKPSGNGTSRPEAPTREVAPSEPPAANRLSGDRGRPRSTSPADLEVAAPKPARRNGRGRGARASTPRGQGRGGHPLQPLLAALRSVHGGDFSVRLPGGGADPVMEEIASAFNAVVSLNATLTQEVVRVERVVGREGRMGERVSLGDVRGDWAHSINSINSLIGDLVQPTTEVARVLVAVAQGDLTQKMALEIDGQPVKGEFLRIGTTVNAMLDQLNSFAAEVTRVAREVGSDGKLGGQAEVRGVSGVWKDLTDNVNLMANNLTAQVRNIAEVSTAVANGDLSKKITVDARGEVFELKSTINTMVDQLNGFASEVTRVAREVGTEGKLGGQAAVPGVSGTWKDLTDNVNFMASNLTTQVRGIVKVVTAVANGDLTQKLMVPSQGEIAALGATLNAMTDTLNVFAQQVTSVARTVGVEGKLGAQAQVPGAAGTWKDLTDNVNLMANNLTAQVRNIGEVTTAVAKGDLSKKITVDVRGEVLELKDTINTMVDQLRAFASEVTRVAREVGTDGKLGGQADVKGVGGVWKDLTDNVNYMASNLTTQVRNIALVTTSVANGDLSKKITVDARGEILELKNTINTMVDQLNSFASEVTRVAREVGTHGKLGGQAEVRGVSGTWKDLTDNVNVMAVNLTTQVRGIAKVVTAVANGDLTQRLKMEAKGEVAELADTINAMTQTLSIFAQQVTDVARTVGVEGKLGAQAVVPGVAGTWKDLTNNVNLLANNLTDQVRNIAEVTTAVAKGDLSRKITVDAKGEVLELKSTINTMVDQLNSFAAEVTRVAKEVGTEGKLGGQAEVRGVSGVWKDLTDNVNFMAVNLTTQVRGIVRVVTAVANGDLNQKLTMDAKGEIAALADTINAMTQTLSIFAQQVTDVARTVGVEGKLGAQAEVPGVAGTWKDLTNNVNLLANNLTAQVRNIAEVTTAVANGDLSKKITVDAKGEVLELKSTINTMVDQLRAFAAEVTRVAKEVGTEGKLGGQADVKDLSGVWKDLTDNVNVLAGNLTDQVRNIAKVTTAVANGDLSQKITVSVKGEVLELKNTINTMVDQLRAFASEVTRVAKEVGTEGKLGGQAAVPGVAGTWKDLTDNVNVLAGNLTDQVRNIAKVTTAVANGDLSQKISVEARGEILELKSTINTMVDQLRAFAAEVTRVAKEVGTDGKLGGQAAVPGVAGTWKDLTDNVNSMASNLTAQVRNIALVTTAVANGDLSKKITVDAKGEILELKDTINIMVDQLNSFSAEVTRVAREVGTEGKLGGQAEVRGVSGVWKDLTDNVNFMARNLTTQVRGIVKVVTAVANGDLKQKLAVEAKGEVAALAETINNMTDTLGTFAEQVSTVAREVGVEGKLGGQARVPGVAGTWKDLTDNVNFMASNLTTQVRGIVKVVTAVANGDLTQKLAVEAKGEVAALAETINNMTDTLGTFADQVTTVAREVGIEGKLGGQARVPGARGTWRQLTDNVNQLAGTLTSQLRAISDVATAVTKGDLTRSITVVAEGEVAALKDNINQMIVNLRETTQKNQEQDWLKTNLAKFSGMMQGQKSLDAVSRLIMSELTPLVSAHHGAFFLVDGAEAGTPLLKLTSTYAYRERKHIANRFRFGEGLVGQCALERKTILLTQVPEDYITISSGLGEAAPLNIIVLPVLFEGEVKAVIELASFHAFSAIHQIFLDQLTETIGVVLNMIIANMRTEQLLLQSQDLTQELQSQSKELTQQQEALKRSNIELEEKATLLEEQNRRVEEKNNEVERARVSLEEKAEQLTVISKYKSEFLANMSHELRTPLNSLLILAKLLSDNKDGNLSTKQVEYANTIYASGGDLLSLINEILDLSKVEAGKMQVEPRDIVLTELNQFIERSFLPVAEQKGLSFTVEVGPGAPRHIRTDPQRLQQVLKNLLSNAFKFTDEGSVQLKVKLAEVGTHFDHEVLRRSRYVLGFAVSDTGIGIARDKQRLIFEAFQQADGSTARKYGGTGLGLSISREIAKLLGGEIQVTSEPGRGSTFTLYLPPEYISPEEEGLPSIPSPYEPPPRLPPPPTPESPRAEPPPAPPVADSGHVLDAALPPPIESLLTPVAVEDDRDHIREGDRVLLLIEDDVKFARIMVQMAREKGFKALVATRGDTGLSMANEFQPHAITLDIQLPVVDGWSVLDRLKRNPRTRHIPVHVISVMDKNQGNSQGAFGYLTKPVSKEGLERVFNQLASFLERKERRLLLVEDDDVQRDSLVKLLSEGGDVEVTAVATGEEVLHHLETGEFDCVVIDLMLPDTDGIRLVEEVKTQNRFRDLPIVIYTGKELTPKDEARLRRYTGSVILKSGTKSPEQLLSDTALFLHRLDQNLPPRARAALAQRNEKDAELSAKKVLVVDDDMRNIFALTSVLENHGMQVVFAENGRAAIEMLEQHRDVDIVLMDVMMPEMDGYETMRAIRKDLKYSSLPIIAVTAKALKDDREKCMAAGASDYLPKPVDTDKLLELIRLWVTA

[3] = target: AskA (ambruticin sensor kinase A, MXAN_0712), hybrid histidine kinase (Myxococcus xanthus); assay: SPR; equilibrium analysis on Biacore X100; ligand amine-coupled to a CM5 chip (which partner is not told); analyte in KB1 running buffer, 0.001 to 1000 µM; 25 °C; 1:1 fit; triplicates
[4] = target: AskB (ambruticin sensor kinase B, MXAN_6735), hybrid histidine kinase (Myxococcus xanthus); assay: as above
[5] = target: AskA (ambruticin sensor kinase A, MXAN_0712), hybrid histidine kinase (Myxococcus xanthus); assay: MST; NT647-labelled C-terminally His6-tagged AskA, AskB or AskC titrated with serial 1:1 dilutions of non-labelled protein; buffer KB1 (500 mM NaCl, 25 mM HEPES, 0.2% Triton X100, pH 7.4); 25 °C; 40% LED power, 40% MST power; triplicates
[6] = target: AskB (ambruticin sensor kinase B, MXAN_6735), hybrid histidine kinase (Myxococcus xanthus); assay: as above
[7] = target: T1, AskC (hybrid histidine kinase, MXAN_6734) (Myxococcus xanthus, UniProt Q1CXM2); assay: MST and SPR with purified protein (KD […] by MST, […] by SPR; mean given); type: binding
T1 construct: C-terminally His6-tagged AskC
T1 sequence (Q1CXM2 1-671): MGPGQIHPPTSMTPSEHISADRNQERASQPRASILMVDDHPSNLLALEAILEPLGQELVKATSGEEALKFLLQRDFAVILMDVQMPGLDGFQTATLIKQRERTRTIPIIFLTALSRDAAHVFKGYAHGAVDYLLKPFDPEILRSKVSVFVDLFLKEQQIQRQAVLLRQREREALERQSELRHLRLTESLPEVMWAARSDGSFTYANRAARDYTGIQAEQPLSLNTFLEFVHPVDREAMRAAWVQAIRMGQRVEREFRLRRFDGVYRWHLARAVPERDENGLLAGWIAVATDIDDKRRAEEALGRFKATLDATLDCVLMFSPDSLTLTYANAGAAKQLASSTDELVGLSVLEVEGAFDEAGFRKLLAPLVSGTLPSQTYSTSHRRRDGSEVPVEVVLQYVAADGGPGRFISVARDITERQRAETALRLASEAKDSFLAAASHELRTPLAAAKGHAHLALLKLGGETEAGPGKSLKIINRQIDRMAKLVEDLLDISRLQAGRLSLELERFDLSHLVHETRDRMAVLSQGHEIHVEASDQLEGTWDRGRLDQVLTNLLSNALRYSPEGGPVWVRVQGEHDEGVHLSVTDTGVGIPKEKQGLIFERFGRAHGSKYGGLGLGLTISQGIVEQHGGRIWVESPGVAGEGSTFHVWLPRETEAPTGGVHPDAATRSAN

[8] = tested on: MrpC (Myxococcus xanthus DK1622); assay: EMSA; conditions: EMSA: 25 mM K-acetate, 8 mM MgSO4, 0.1 mM DTT, 15 mM Tris-HCl pH 7.3, 8% glycerol, 250 ng poly-dIdC, 200 fmol DNA, 15 ul, 30 C 30 min. Pull-down (purified): …
[9] = target: AskC (MXAN_6734), hybrid histidine kinase, C-terminally His6-tagged (Myxococcus xanthus); assay: MST + SPR; average of the KD values from MST and from SPR (mean KD of Table 1)
[10] = target: AskC (MXAN_6734), hybrid histidine kinase, C-terminally His6-tagged (Myxococcus xanthus); assay: SPR; equilibrium analysis on Biacore X100; ligand amine-coupled to a CM5 chip (which partner is not told); analyte in KB1 running buffer, 0.001 to 1000 µM; 25 °C; 1:1 fit; triplicates
[11] = target: AskC (MXAN_6734), hybrid histidine kinase, C-terminally His6-tagged (Myxococcus xanthus); assay: MST; NT647-labelled C-terminally His6-tagged AskA, AskB or AskC titrated with serial 1:1 dilutions of non-labelled protein; buffer KB1 (500 mM NaCl, 25 mM HEPES, 0.2% Triton X100, pH 7.4); 25 °C; 40% LED power, 40% MST power; triplicates

Chain of AskA (ambruticin sensor kinase A, MXAN_0712), hybrid histidine kinase (Myxococcus xanthus) (main, as listed by the source): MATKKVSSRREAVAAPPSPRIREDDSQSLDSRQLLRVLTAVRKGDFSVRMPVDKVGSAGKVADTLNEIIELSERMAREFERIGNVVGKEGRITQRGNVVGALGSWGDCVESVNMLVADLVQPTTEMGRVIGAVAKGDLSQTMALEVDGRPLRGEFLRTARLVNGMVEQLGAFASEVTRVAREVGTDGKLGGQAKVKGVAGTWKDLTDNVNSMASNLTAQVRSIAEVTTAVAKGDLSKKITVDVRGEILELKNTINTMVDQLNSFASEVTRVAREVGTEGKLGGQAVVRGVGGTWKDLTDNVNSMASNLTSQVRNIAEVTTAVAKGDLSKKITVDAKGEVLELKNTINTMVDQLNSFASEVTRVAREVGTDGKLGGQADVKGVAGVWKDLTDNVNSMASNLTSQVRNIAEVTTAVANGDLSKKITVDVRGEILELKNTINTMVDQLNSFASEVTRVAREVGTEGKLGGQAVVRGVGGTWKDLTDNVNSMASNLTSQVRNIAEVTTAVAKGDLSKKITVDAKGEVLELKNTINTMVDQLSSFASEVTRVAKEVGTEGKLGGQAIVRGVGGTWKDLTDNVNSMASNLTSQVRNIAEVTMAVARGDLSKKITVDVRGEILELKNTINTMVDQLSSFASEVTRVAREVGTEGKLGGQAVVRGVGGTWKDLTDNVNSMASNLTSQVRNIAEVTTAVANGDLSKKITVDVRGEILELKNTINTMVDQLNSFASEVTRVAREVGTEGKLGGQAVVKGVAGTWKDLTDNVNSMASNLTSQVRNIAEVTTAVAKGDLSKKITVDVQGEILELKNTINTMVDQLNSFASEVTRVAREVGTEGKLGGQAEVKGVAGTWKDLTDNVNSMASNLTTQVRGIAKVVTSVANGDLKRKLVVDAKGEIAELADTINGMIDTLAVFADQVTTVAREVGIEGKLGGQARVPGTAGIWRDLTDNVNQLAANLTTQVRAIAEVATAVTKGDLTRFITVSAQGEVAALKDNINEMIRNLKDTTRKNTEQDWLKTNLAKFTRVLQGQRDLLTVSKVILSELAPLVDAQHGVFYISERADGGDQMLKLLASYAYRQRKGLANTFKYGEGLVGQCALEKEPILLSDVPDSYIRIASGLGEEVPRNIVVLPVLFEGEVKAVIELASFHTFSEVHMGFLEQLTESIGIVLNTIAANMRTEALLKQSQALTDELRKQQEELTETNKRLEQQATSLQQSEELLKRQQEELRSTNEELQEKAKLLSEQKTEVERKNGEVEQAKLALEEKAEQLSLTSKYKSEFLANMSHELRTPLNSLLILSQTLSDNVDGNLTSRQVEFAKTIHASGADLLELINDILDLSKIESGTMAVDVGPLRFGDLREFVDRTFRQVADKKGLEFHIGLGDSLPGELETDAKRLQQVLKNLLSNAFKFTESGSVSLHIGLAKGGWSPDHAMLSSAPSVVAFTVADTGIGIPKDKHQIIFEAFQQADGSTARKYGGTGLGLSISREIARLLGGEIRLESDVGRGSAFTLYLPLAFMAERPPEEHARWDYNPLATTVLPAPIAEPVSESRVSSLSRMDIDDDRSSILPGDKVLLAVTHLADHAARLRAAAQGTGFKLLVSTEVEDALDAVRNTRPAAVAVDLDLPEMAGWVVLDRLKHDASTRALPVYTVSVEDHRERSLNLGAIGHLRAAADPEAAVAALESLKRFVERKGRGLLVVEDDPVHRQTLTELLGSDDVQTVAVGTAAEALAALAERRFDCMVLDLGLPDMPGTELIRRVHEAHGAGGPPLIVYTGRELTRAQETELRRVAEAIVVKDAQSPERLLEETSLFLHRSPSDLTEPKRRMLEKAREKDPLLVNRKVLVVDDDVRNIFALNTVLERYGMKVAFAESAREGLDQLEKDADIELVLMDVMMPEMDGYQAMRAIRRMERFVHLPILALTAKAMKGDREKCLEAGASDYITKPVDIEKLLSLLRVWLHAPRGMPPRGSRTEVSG

mean KD [1]: 2800 nM | mean KD [2]: 700 nM | Kd [3]: 1400 nM | Kd [4]: 400 nM | Kd [5]: 4100 nM | Kd [6]: 900 nM
Molecule: AskC (MXAN_6734), hybrid histidine kinase, C-terminally His6-tagged (enzyme)

Molecule: CCC1OC(/C(C)=C/C(C)/C=C/C2C(C)C2/C=C/C2OC(CC(=O)O)CC(N(C)C)C2O)CC=C1C (centres unmarked) [ambVS3, ambruticin VS-3]
Kd [7]: 300000 ± 200000 nM

Molecule: HEX-PmrpC
Kd [8]: < 5 nM

mean KD [1]: 2800 nM | Kd [3]: 3000 nM | Kd [5]: 2300 nM
Molecule: AskB (ambruticin sensor kinase B, MXAN_6735), hybrid histidine kinase (enzyme)

mean KD [1]: 1000 nM | mean KD [2]: 1200 nM | mean KD [9]: 1400 nM | Kd [3]: 500 nM | Kd [4]: 200 nM | Kd [10]: 1500 nM | Kd [5]: 1400 nM | Kd [6]: 2100 nM | Kd [11]: 1300 nM
B1: FruA, transcriptional regulator of development (natural protein)
chain: MATNQAAIRVSILEGPWAAWQGLADGLRGEGVQVSSVTRDVRLFLDSLGTDPPQVAVMDVEGDSEAAVGCSVTEGINLLREARKRRLEVRMLLLSAVSTPEIISQCFDEGASGYLFRAGLGTTAVASAINSLVRGERLFPVQLLRNDFEHPPVTSPTASVLLALTQREREVLAYVAGGADNLKIAAHLQIAERTVKSHVTQLYRKLGAENRTQLALRACHLGVRPPPDL

mean KD [1]: 800 nM | mean KD [2]: 1200 nM | mean KD [9]: 1500 nM | Kd [3]: 1000 nM | Kd [4]: 300 nM | Kd [10]: 1600 nM | Kd [5]: 500 nM | Kd [6]: 2100 nM | Kd [11]: 1400 nM
B2: MrpC, transcriptional regulator of development (natural protein)
chain: MHGFNRPLGPIGSNVVAPLQTTSSGMMVTANKLVPGQEAIDFKGYFKVESFPHNSTIYRPGDNTDRVYLLKSGRVRLMRIGKNSTRSVVSILRPGDLFGELFRPEGTPIEEMAIAAGEAEVWSIEGRDFRAQLEARPALAVDVVRAYAERVRALRKRVLGLTFKEVPARLADTLLTLVEAHGERCPHGGETDLRGITQQDLADLVGASRSFVSTLINEMKREGVLGNVGRILCVRDQKALRKIAGKEK
